# Data from patent US9750823B2, “Use of a truncated CCN1 promoter for cancer diagnostics, therapeutics and theranostics” (priority 2013, dated 2017).
# What was measured:
# [1] = test system: src-, raf-, ras- and HPV-transformed CREF cells; experiment: Luciferase reporter assay of p-CCN1-luc and/or TPA in transformed CREF cells; type: cell-based, rat; settings: for effect on expression of the tCCN1-Prom: TPA 200 ng/ml
# Description: FIGS. 1A and B. tCCN1 promoter activity in Prostate cancer (PC) and cloned rat embryo fibroblast (CREF) series of cell lines. […] B. src-, raf-, ras- and HPV-transformed CREF cells were treated with p-CCN1-luc and/or TPA (200 ng/ml).
# [2] = test system: prostate cancer cells lines DU-145, PC-3, ARCaP, ARCaP-E, ARCaP-M and normal human prostate epithelial cell lines RWPE-1 and P69; experiment: Dual-luciferase reporter assay of promoter activity (pCCN1-luc vs pPEG-luc); type: cell-based; settings: pGL3-luc reporter, normalized with pRL-TK
# Source text: FIGS. 1A and B. tCCN1 promoter activity in Prostate cancer (PC) and cloned rat embryo fibroblast (CREF) series of cell lines. A. Prostate cancer DU-145, PC-3, ARCaP, ARCaP-E, and ARCaP-M cells and normal RWPE-1 and P69 cells were transfected with pGL3-luc reporter vector driven by PEG-Prom (pPEG-luc) or tCCN1-Prom (pCCN1-luc). pRL-TK (Renilla luciferase) was co-transfected for the normalization of luciferase activity, and the luminescence readings were plotted as relative luminescence units (RLU). *(p<0.05), **(p<0.01) and ***(p<0.001) indicates the statistical significance by using t-test between pPEG-luc and pCCN1-luc transfected cells. B. src-, raf-, ras- and HPV-transformed CREF cells were treated with p-CCN1-luc and/or TPA (200 ng/ml). The results were recorded as RLU. *(p<0.05) and **(p<0.01) indicates the statistical significance between pCCN1-luc and pCCN1-luc plus TPA treated cells.
# Prostate cancer cells were plated at seeding density of 30,000 cells/well in quadruplicate in 24-well cell culture plate. After 24 h, cells were transfected with either pGL3.PEG-luc or pGL3.CCN1-hie using Fugene® HD transfection reagent (Promega, Madison, Wis., USA). […] Cells were lysed after 48 h of post transfection and luminescence was studied using Dual-luciferase Reporter® Assay system (Promega) with luminometer. […]
# [3] = test system: breast, brain (including Glioblastoma multiforme, GBM) and melanoma; experiment: tCCN1-Prom expression in additional human cancers vs normal counterparts (data not shown); type: cell-based
Molecule,effect on expression of the tCCN1-Prom [1],tCCN1-Prom activity compared with PEG-Prom (relative luminescence units) [2],"tCCN1-Prom activity in transformed CREF cells ([1]; src-, raf-, ras- and HPV-transformed CREF cells)",tCCN1-Prom expression in additional human cancers vs normal counterparts [3]
CCCCCCCCCCCCCC(=O)O[C@@H]1[C@@H](C)[C@@]2(O)[C@@H](C=C(CO)C[C@]3(O)C(=O)C(C)=C[C@@H]23)[C@@H]2C(C)(C)[C@]12OC(C)=O [TPA],increased the expression of the tCCN1-Prom,,,
"Nc1ncnc2c1ncn2[C@@H]1O[C@@H]2COP(=O)(O)O[C@H]2[C@H]1O [cyclic adenosine mono-phosphate (AMP), cyclic adenosine mono-phosphate]",increased the expression of the tCCN1-Prom,,,
"tCCN1-Prom: truncated CCN1 cancer selective promoter, SEQ ID NO: 1; tested in reporter plasmid pGL3.CCN1-luc (pCCN1-luc) (nucleic acid, Synthetic promoter) DNA: TCCAAAAACAAACAAGTACAACATACCCAAAAGAGGGAAGGGCTGGAGGAGTGGGGGAGACCTCTGCCTGGGAATTTGCCAGACGATGGGCAAGTTTCCCCCCGCCCCACCCCCCCCCCCGCCTTTTCATTCATAAATGCCACTGTGGGTATTAATTTGCAATTCACTGAACTTTGCTAATAAACATCATGCCAAAGCTTTGGGACTTGTTCCGAACACGCCTCTTTGAAGTCCACAAATATTCCTGACTCAGAGACACACTCCTCTTCCCCGTTCTACTCTTTCAACAGATAACTTGCCTCTCACCTTCGCTGTAAAAAAGCAAACAGCTCACTGCCTTCCCGGGTGAGGGCTTCAGTGGCTGCCCGGTCAACTCGCATCACCAAACAAAACGACTTTTGTTCCTCCCTCTCAGGTCCTCCCACCCACCCAGTCCAGGCAAAGTTCTGAACTGGCCCCCTCGCCCCTCACGACCCTCCAACTACCATCACCACCATCACGCCCCAAAGAACCCTTCCCAACATAAGTCGTAATTTAAGGTGGAAAAAACGAACTGTTTTCTTGACGGGTCTGGGACACACACACACACACACACACACACACACACCGAACTGTTTTCTTGACGGGTCTGGGAGACACACACACACACACACACACACACACACACACACACACACACACAAAGGTGCAATGGGGCCAGGGGAGGCGCTTGGCAGCAGCCCGCGCCAACCAGCATTCCTGAGATGTTTGAGAATTCTGGAACGCGCAGACAGAGCCGACGTCACTGCAACACGCGGCGCCTCCGCCGGCCCGTATAAAAGGCGGGCTCCGGGGCGCC",,more active than the PEG-Prom in prostate cancer cells as compared to normal counterparts RWPE-1 and P69,elevated as a function of transformation of CREF cells by diverse acting oncogenes,elevated expression in additional human cancers vs. normal immortal or primary normal counterparts
